Here are results for twelve molecules from patent US20240132624A1 (Ablynx, published 2024).

For assay [1], the target named is T1, cyno FcRn/b2M (cyno, UniProt Q8SPV9 24-297; Q8SPW0 21-119, biotinylated).
T1 construct: bought recombinant biotinylated protein (Immunitrack ITF05 or ACRO FCM-C82W5); also called cFcRn; cFcRn/cb2M
Kind of assay: SPR pH 6.0.

Assay [2] has as its target T1, cyno FcRn/b2M. Description: SPR pH 7.4.
Assay [3] concerns the target T2, human FcRn/b2M (human, UniProt P61769 21-119, biotinylated).
T2 construct: bought recombinant biotinylated protein (ACRO FCM-H82W4 or Immunitrack ITF01); also called hFcRn; hFcRn/hb2M
Kind of assay: SPR pH 7.4.

For assay [4], the target named is T1, cyno FcRn/b2M. Kind of assay: SPR pH 7.4. The source holds these as a separate data set.
Description: (§1) The affinities of the monovalent purified, tagless ISVDs were determined for human FcRn on ProteOn XPR36 (BioRad Laboratories, Inc.), the MASS-2 (Sierra sensors, Gmbh) or SPR-32 (Bruker Corporation) instrument. In the same way, the affinities of bivalent ISVD constructs comprising two of the same monovalent building blocks of purified, tagless ISVDs were determined for human FcRn on ProteOn XPR36 (BioRad Laboratories, Inc.), the MASS-2 (Sierra sensors, Gmbh) or SPR-32 (Bruker Corporation) instrument. For affinity measurements, ˜1000-3000RU (hFcRn/hb2M; ACRO Biosystems FCM-H82W4) was captured on a ProteOn NLC sensor (ProteOn) or Biotin-tag Capture Chip or a High Capacity Amine Chip (pre-immobilized with neutravidin; MASS-2). The ISVDs were injected at 6 different concentrations (between 1 and 4000 nM) and allowed to associate for 120s at 45 μL/min and dissociate for 600s-3600s at 45 μL/min. […] Evaluation of the sensorgrams was based on the 1:1 Langmuir dissociation model simultaneously fitting on and off-rates.
The target in assay [5] is T2, human FcRn/b2M. Kind of assay: SPR pH 7.4. The source holds these as a separate data set.
Description: as §1
In assay [6] the target is T1, cyno FcRn/b2M. Kind of assay: SPR pH 6.0. The source holds these as a separate data set.
Description: as §1
Assay [7] deals with T2, human FcRn/b2M. Description: SPR pH 6.0.
Description: as §1
The target in assay [8] is T1, cyno FcRn/b2M. Kind of assay: SPR pH 7.4. This is another data set of the same source.
Description: (§2) The affinity of the purified, multivalent ISVD constructs for human and cyno FcRn was determined on the MASS-2 (Sierra sensors, Gmbh) instrument, hFcRn/hb2M and cFcRn/cb2M was captured on a Biotin-tag Capture Chip or a High Capacity Amine Chip (pre-immobilized with neutravidin). The ISVD constructs were injected at 6 different concentrations (between 1 and 4000 nM) and allowed to associate for 120 s at 45 μL/min and dissociate for 600 s-3600 s at 45 μL/min. […] Evaluation of the sensorgrams was based on the 1:1 Langmuir dissociation model simultaneously fitting on and off-rates.
Assay [9] deals with T2, human FcRn/b2M. Kind of assay: SPR pH 7.4. This is another data set of the same source.
Description: as §2
In assay [10] the target is T1, cyno FcRn/b2M. Kind of assay: SPR pH 6.0. The source holds these as a separate data set.
Description: as §2
Assay [11] addresses T2, human FcRn/b2M. Kind of assay: SPR pH 6.0. The source holds these as a separate data set.
Description: as §2
Assay [12] deals with T3, human serum albumin (human, UniProt P02768 25-609).
T3 construct: also called HSA
Description: SPR pH 6.0.
Description: (§3) The affinity of the purified, multivalent ISVD constructs for human and mouse serum albumin (HSA and MSA, respectively) was determined on the ProteOn XPR36 (BioRad Laboratories, Inc.) instrument. […] The ISVD constructs were injected at 6 different concentrations (between 1 and 500 nM) and allowed to associate for 120 s at 45 μL/min and dissociate for 600s-3600s at 45 μL/min. Evaluation of the sensorgrams was based on the 1:1 Langmuir dissociation model simultaneously fitting on and off-rates.

Assay [13] addresses T4, mouse serum albumin (mouse, UniProt P07724 25-608).
T4 construct: also called MSA
Description: SPR pH 6.0.
Description: as §3

Assay [14] has as its target T3, human serum albumin. Kind of assay: SPR pH 7.4.
Description: as §3
Assay [15] concerns the target T4, mouse serum albumin. Description: SPR pH 7.4.
Description: as §3
Assay [16] has as its target T1, cyno FcRn/b2M. Kind of assay: SPR pH 6.0. This is another data set of the same source.
Description: as §2
For assay [17], the target named is T3, human serum albumin. Kind of assay: SPR pH 7.4. This is another data set of the same source.
Description: as §3
In assay [18] the target is T3, human serum albumin. Description: SPR pH 6.0. The source holds these as a separate data set.
Description: as §3
The target of assay [19] is T2, human FcRn/b2M. Kind of assay: SPR pH 6.0. This is another data set of the same source.
Description: as §2
Assay [20] has as its target T1, cyno FcRn/b2M. Description: SPR pH 7.4. The source holds these as a separate data set.
Description: as §2
The target in assay [21] is T2, human FcRn/b2M. Kind of assay: SPR pH 7.4. This is another data set of the same source.
Description: as §2
For assay [22], the target named is T4, mouse serum albumin. Description: SPR pH 7.4. The source holds these as a separate data set.
Description: as §3
Assay [23] deals with T4, mouse serum albumin. Description: SPR pH 6.0. This is another data set of the same source.
Description: as §3

Broadly, the Kd is the equilibrium constant for the complex coming apart. As a reminder, the koff is the first-order rate constant of dissociation. Read a high koff as a short-lived complex.

T2 sequence (chain, as listed by the source limits assumed, chain 1 of 2): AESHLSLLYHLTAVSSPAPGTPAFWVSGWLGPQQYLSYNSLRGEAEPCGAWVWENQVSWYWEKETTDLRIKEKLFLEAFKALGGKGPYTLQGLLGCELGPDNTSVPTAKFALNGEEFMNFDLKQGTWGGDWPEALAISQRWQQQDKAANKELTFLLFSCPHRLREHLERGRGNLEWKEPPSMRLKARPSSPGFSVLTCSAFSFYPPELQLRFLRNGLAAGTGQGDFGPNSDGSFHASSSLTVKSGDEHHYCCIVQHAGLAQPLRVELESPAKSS
T2 sequence (P61769 21-119 limits assumed, chain 2 of 2): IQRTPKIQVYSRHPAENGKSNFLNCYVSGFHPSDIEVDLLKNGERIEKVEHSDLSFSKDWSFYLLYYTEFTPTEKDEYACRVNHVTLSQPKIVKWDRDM
T4 sequence (P07724 25-608 limits assumed): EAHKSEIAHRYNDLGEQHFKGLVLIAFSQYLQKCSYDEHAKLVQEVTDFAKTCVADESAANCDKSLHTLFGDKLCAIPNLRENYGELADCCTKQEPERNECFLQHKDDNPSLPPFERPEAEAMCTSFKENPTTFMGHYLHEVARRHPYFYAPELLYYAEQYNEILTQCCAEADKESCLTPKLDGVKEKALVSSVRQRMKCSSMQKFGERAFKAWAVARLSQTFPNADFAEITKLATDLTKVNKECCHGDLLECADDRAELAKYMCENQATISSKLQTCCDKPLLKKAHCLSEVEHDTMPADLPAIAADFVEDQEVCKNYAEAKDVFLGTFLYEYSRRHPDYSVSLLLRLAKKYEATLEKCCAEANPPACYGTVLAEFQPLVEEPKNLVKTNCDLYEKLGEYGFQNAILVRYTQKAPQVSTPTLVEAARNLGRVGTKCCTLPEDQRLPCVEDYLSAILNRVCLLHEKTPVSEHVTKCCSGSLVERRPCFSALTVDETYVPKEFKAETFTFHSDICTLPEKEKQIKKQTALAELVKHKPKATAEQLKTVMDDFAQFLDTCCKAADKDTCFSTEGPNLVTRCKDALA
T1 sequence (Q8SPV9 24-297 limits assumed, chain 1 of 2): as the sequence (chain, as listed by the source limits assumed, chain 1 of 2) above, with N39D, E44Q, G99S, S189G, S190N, L217M, S269T counted along it
T1 sequence (Q8SPW0 21-119 limits assumed, chain 2 of 2): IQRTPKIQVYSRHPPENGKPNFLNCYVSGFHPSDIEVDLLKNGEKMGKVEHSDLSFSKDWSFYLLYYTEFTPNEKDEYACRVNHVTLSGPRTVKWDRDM

B1: T026301075 (VHH, name in Kabat numbering)
VHH: EVQLVESGGGVVQPGGSLRLSCAASTFTFSEYAMYWVRQAPGKGLEWVSAISSGGGSTDYADSVKGRFTISRDNSKNTLYLQMNSLRPEDTALYYCAADTLYTSLTWYSYWGQGTLVTVSS
notes: tagless
Consider B1, for which the dissociation constant Kd in assay [1] amounted to 21 nM; in assay [2], 3100 nM; in assay [3] it was 5600 nM.

B2: T026301230 (other, name in Kabat numbering, not shown: small tags and cut ends)
chain: DVQLVESGGGVVQPGGSLRLSCAASGFTFSSYAMYWVRQAPGKGLEWVSAISSGGGSTDYADSVKGRFTISRDNSKNTLYLQMNSLRPEDTALYYCAADTLYTSLTSYSYWGQGTLVTVSS
notes: pentavalent ISVD construct
Take B2: the Kd in [4] worked out at 580 nM; in assay [5], 670 nM; in [6] it was 54 nM; in [7], 100 nM.

B3: T026301233 (other, name in Kabat numbering, not shown: small tags and cut ends)
chain: DVQLVESGGGVVQPGGSLRLSCAASTFTFSSYAMYWVRQAPGKGLEWVSAISQGGGSTDYADSVKGRFTISRDNSKNTLYLQMNSLRPEDTALYYCAADTLYTSLTSYSYWGQGTLVTVSS
notes: pentavalent ISVD construct
For the molecule B3, the equilibrium dissociation constant (Kd) in assay [4] was determined as 420 nM; in [5] it was 750 nM; in assay [6], 270 nM; in [7], 490 nM.

B4: T026301234 (other, not shown: small tags and cut ends)
chain: DVQLVESGGGVVQPGGSLRLSCAASGFTFSSYAMYWVRQAPGKGLEWVSAISSGGGSTDYADSVKGRFTISRDNSKNTLYLQMNSLRPEDTALYYCAADTLYTSLTWYSYWGQGTLVTVSS
notes: pentavalent ISVD construct
B4: the equilibrium dissociation constant (Kd) in assay [4] amounted to 490 nM; in assay [5], 740 nM; in assay [6], 14 nM; in assay [7], 26 nM.

B5: T026301170 (bispecific antibody)
chain: DVQLVESGGGVVQPGGSLRLSCAASGFTFSSYAMYWVRQAPGKGLEWVSAISSGGGSTDYADSVKGRFTISRDNSKNTLYLQMNSLRPEDTALYYCAADTLYTSLTWYSYWGQGTLVTVSSGGGGSGGGGSGGGGSGGGGSGGGGSGGGGSGGGGSEVQLVESGGGVVQPGGSLRLSCAASGFTFRSFGMSWVRQAPGKGPEWVSSISGSGSDTLYADSVKGRFTISRDNSKNTLYLQMNSLRPEDTALYYCTIGGSLSRSSQGTLVTVSSA
notes: bispecific ISVD construct; also called T0263018B11(E1D)-35GS-ALB23002-A
In the case of B5, the equilibrium dissociation constant (Kd) in assay [8] is 290 nM; in [9] it was 450 nM; in [10], 7.9 nM; in assay [11] it was 12 nM; in assay [12], 6.1 nM; in assay [13] it was 67 nM. The dissociation constant Kd in [14] was 13 nM; in assay [15], 85 nM.

B6: T026301192 (bispecific antibody, name in Kabat numbering)
chain: DVQLVESGGGVVQPGGSLRLSCAASGFTFSSYAMYWVRQAPGKGLEWVSAISSGGGSTDYADSVKGRFTISRDNSKNTLYLQMNSLRPEDTALYYCAADTLYTELTWYSYWGQGTLVTVSSGGGGSGGGGSGGGGSGGGGSGGGGSGGGGSGGGGSEVQLVESGGGVVQPGGSLRLSCAASGFTFRSFGMSWVRQAPGKGPEWVSSISGSGSDTLYADSVKGRFTISRDNSKNTLYLQMNSLRPEDTALYYCTIGGSLSRSSQGTLVTVSSA
notes: bispecific ISVD construct; also called T0263018B11(E1D, S100E)-35GS-ALB23002-A
Regarding B6, the Kd in assay [8] came out at 480 nM; in assay [10], 140 nM; in assay [11], 250 nM; in assay [12], 5.7 nM; in assay [13], 64 nM; in assay [14], 12 nM. Besides, binding in [15] was characterised by a dissociation constant (Kd) of 87 nM.

B7: T026301198 (bispecific antibody, name in Kabat numbering)
chain: DVQLVESGGGVVQPGGSLRLSCAASGFTFSSYAMYWVRQAPGKGLEWVSAISSGGGSTDYADSVKGRFTISRDNSKNTLYLQMNSLRPEDTALYYCAADTLYTSLTSYSYWGQGTLVTVSSGGGGSGGGGSGGGGSGGGGSGGGGSGGGGSGGGGSEVQLVESGGGVVQPGGSLRLSCAASGFTFRSFGMSWVRQAPGKGPEWVSSISGSGSDTLYADSVKGRFTISRDNSKNTLYLQMNSLRPEDTALYYCTIGGSLSRSSQGTLVTVSSA
notes: bispecific ISVD construct; also called T0263018B11(E1D, W100cS)-35GS-ALB23002-A
In the case of B7, the Kd in assay [8] worked out at 2900 nM; in [9], 2500 nM; in assay [10], 67 nM; in assay [12], 7.3 nM; in assay [13] it was 89 nM; in assay [14], 15 nM. Besides, in assay [15], the affinity, expressed as Kd, was 120 nM.

B8: T026301366 (bispecific antibody, not shown: small tags and cut ends)
chain: EVQLVESGGGVVQPGGSLRLSCAASGFTFSSYAMYWVRQAPGKGLEWVSAISSGGGSTDYADSVKGRFTISRDNSKNTLYLQMNSLRPEDTALYYCAADTLYTSLTSYSYWGQGTLVTVSSGGGGSGGGGSGGGGSGGGGSGGGGSGGGGSGGGGSEVQLVESGGGVVQPGGSLRLSCAASGFTFRSFGMSWVRQAPGKGPEWVSSISGSGSDTLYADSVKGRFTISRDNSKNTLYLQMNSLRPEDTALYYCTIGGSLSRSSQGTLVTVSSA
notes: tetravalent ISVD construct; also called X-Y-FcRn(W100cS)-35GS-ALB23002
As for B8, the dissociation constant Kd in assay [16] is 180 nM; in [17] it was 7.5 nM; in assay [18], 10 nM.

B9: T026301197 (bispecific antibody, name in Kabat numbering)
chain: DVQLVESGGGVVQPGGSLRLSCAASGFTFSSYAMYWVRQAPGKGLEWVSAISQGGGSTDYADSVKGRFTISRDNSKNTLYLQMNSLRPEDTALYYCAADTLYTSLTWYSYWGQGTLVTVSSGGGGSGGGGSGGGGSGGGGSGGGGSGGGGSGGGGSEVQLVESGGGVVQPGGSLRLSCAASGFTFRSFGMSWVRQAPGKGPEWVSSISGSGSDTLYADSVKGRFTISRDNSKNTLYLQMNSLRPEDTALYYCTIGGSLSRSSQGTLVTVSSA
notes: bispecific ISVD construct; also called T0263018B11(E1D, S52aQ)-35GS-ALB23002-A
Turning to B9, the dissociation constant Kd in [8] was determined as 2400 nM; in assay [9], 2600 nM; in assay [10], 41 nM; in [11], 71 nM; in assay [12] it was 5.1 nM; in assay [13], 57 nM. Further, the dissociation constant (Kd) came to 11 nM in [14] and 69 nM in assay [15].

B10: T026301196 (bispecific antibody, name in Kabat numbering)
chain: DVQLVESGGGVVQPGGSLRLSCAASTFTFSSYAMYWVRQAPGKGLEWVSAISQGGGSTDYADSVKGRFTISRDNSKNTLYLQMNSLRPEDTALYYCAADTLYTSLTSYSYWGQGTLVTVSSGGGGSGGGGSGGGGSGGGGSGGGGSGGGGSGGGGSEVQLVESGGGVVQPGGSLRLSCAASGFTFRSFGMSWVRQAPGKGPEWVSSISGSGSDTLYADSVKGRFTISRDNSKNTLYLQMNSLRPEDTALYYCTIGGSLSRSSQGTLVTVSSA
notes: bispecific ISVD construct; also called T0263018B11(E1D, G26T, S52aQ, W100cS)-35GS-ALB23002-A
With B10, the Kd in assay [10] is 510 nM; in assay [11] it was 1000 nM; in [12], 7.4 nM; in [13], 89 nM; in assay [14] it was 15 nM; in assay [15], 120 nM.

B11: T026301257 (bispecific antibody, not shown: small tags and cut ends)
chain: EVQLVESGGGVVQPGGSLRLSCAASGFTFSSYAMYWVRQAPGKGLEWVSAISSGGGSTDYADSVKGRFTISRDNSKNTLYLQMNSLRPEDTALYYCAADTLYTSLTWYSYWGQGTLVTVSSGGGGSGGGGSGGGGSGGGGSGGGGSGGGGSGGGGSEVQLVESGGGVVQPGGSLRLSCAASGFTFRSFGMSWVRQAPGKGPEWVSSISGSGSDTLYADSVKGRFTISRDNSKNTLYLQMNSLRPEDTALYYCTIGGSLSRSSQGTLVTVSSA
notes: tetravalent ISVD construct; also called X-Y-FcRn-35GS-ALB23002
Consider B11, for which the Kd in assay [16] is 20 nM; in assay [19], 34 nM; in assay [20] it was 710 nM; in assay [21], 1200 nM; in assay [17], 11 nM; in assay [18], 14 nM. The koff in assay [22] came to 0.052 s⁻¹; in assay [23], 0.056 s⁻¹.

B12: T026301259 (bispecific antibody, not shown: small tags and cut ends)
chain: EVQLVESGGGVVQPGGSLRLSCAASGFTFSSYAMYWVRQAPGKGLEWVSAISSGGGSTDYADSVKGRFTISRDNSKNTLYLQMNSLRPEDTALYYCAADTLYTSLTWYSYWGQGTLVTVSSGGGGSGGGSEVQLVESGGGVVQPGGSLRLSCAASGFTFRSFGMSWVRQAPGKGPEWVSSISGSGSDTLYADSVKGRFTISRDNSKNTLYLQMNSLRPEDTALYYCTIGGSLSRSSQGTLVTVSSA
notes: tetravalent ISVD construct; also called X-Y-FcRn-ALB23002
Take B12: the Kd in assay [16] was 15 nM; in [19], 25 nM; in assay [20], 480 nM; in assay [21] it was 830 nM; in assay [17] it was 7.32 nM; in assay [18] it was 9.8 nM. For the same molecule, the koff in assay [22] came out at 0.037 s⁻¹; in assay [23], 0.038 s⁻¹.
